Measured values reported in US20260274944A1 (published 2026).

How the values were obtained:
[1] = target: T1, mouse RAGE (mRAGE) fused to EGFP, expressed on CHO cells (mouse, UniProt Q62151 23-402); assay: flow cytometry on CHO-mRAGE-EGFP cells; apparent Kd; column head prints TfR, legend says RAGE
T1 chain: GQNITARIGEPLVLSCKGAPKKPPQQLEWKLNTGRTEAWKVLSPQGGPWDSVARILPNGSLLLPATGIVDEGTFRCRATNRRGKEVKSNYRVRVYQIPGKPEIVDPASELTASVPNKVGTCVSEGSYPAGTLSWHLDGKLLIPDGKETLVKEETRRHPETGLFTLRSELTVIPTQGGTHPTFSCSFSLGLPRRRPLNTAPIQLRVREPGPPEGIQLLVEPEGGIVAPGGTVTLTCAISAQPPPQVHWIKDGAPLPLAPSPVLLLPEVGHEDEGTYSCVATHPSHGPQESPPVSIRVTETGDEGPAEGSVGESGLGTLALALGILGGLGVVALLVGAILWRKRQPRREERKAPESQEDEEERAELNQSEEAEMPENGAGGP

[2] = target: T2, human RAGE (hRAGE) fused to EGFP, stably expressed on CHO cells (human, UniProt Q15109 23-404); assay: flow cytometry on CHO-hRAGE-EGFP cells; apparent Kd; column head prints TfR, legend says RAGE
[3] = target: T2, human RAGE (hRAGE) fused to EGFP, …; assay: flow cytometry on CHO-hRAGE-EGFP cells; apparent Kd
[4] = target: T1, mouse RAGE (mRAGE) fused to EGFP, …; assay: flow cytometry on CHO-mRAGE-EGFP cells; apparent Kd
[5] = target: T1, mouse RAGE (mRAGE) fused to EGFP, …; assay: flow
[6] = target: T1, mouse RAGE (mRAGE) fused to EGFP, …; assay: flow
[7] = target: T1, mouse RAGE (mRAGE) fused to EGFP, …; assay: flow cytometry on CHO-mRAGE-EGFP cells; apparent Kd

T2 sequence (Q15109 23-404): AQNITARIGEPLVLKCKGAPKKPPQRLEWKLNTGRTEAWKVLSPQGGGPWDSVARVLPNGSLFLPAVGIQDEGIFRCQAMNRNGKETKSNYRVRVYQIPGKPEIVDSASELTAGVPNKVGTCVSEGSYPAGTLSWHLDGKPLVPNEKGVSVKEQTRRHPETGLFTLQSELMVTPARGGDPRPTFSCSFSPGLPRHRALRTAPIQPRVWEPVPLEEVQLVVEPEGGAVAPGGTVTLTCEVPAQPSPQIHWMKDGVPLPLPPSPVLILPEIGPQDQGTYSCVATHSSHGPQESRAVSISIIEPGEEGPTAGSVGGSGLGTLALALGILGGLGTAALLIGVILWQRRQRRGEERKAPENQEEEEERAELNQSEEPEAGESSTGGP

Row | Binder | Kd [1] [nM] | Kd [2] [nM] | other results
1 | VHH 1-Fc (Fc fusion) QVQLVQSGGGLVQPGGSLRLSCAVSGSIFSSATMGWYRQAPGKQRELAARISSGGSTNYLDSVKGRFTISRDNAKNTVYLQMNSLKLEDTAVYYCRLQANFGLVDYWGKGTQVTVSS | 1.9 | 154 | 
2 | VHH 1 (VHH) VHH: QVQLVQSGGGLVQPGGSLRLSCAVSGSIFSSATMGWYRQAPGKQRELAARISSGGSTNYLDSVKGRFTISRDNAKNTVYLQMNSLKLEDTAVYYCRLQANFGLVDYWGKGTQVTVSS |  |  | Kd [3]: 347 nM; Kd [4]: 320 nM
3 | VHH 3 (VHH) VHH: QVQLVQSGGGLVQAGGSLRLSCVASGRTFSNYAMAWFRQAPGEEREFVARISWSGGRTSYADSVKGRFTISRDNAKNTVYLQMISLKPEDTAVYYCATEAGAFGGVYSSTGSYDYWGQGTQVTVSS |  |  | Kd [5]: 80 nM
4 | VHH 4-Fc (Fc fusion) EVQLVESGGGLVQAGGSLRLSCVASGRTFSNYAMAWFRQAPGEEREFVARISWRGGRTSYADSVKGRFTISRDNAKNTVYLQMISLKPEDTAVYYCASEGGAFGGVYSATGSYDYWGQGTQVTVSS | 1.4 |  | 
5 | VHH 2-Fc (Fc fusion) QVQLVQSGGGLVQAGGSLRLSCAASGSVSSIYAMGWYRQAPGKQREWVTTITGRGITDYAASVKGRFTISRDTAKNAVYLQMNNLKPEDTARYYCKIDRRGYAPYWGQGTQVTVSS | 9.6 | 3.6 | 
6 | VHH 5-Fc (Fc fusion) EVQLVESGGGLVQPGGSLRLSCAASGTIFSLNPMGWYRQAPGKQLELVALISDSGTANYADFVRGRFTISRDTTKKTLYLQMNSLEPEDTAVYYCRSTFAAGNFYWGQGTQVTVSS | 153 | 3.2 | 
7 | VHH 2 (VHH) VHH: QVQLVQSGGGLVQAGGSLRLSCAASGSVSSIYAMGWYRQAPGKQREWVTTITGRGITDYAASVKGRFTISRDTAKNAVYLQMNNLKPEDTARYYCKIDRRGYAPYWGQGTQVTVSS |  |  | Kd [4]: 526 nM
8 | VHH 3-Fc (Fc fusion) QVQLVQSGGGLVQAGGSLRLSCVASGRTFSNYAMAWFRQAPGEEREFVARISWSGGRTSYADSVKGRFTISRDNAKNTVYLQMISLKPEDTAVYYCATEAGAFGGVYSSTGSYDYWGQGTQVTVSS |  |  | Kd [6]: 1.4 nM
9 | VHH 4-siTTRm (antibody, V domains shown) VH: EVQLVESGGGLVQAGGSLRLSCVASGRTFSNYAMAWFRQAPGEEREFVARISWRGGRTSYADSVKGRFTISRDNAKNTVYLQMISLKPEDTAVYYCASEGGAFGGVYSATGSYDYWGQGTQVTVSS |  |  | Kd [7]: 11 nM
10 | VHH 2-siTTRm (antibody, V domains shown) VH: QVQLVQSGGGLVQAGGSLRLSCAASGSVSSIYAMGWYRQAPGKQREWVTTITGRGITDYAASVKGRFTISRDTAKNAVYLQMNNLKPEDTARYYCKIDRRGYAPYWGQGTQVTVSS |  |  | Kd [7]: 119 nM
